Test results taken from patent publication US20200385445A1 (COMPUGEN, published 2020).
Residue numbers refer to the chain shown, from its start.

T1: human PVRIG (Poliovirus Receptor Related Immunoglobulin Domain Containing Protein), full length on cells (human, UniProt Q6DKI7 41-326)
T1 construct: whole, on cells; Over-expressed on HEK293 (some pools flag-tagged) or endogenous on Jurkat, CA46, T cells, NK cells, TILs; also called hPVRIG; HEK hPVRIG
T1 sequence (looked up): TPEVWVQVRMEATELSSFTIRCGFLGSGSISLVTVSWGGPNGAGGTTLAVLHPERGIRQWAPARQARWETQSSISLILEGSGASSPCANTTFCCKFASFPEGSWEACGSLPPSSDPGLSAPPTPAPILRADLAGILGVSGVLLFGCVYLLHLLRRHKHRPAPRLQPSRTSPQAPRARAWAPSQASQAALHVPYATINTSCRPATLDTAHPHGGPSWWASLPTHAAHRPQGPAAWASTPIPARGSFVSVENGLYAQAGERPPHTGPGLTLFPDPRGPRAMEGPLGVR

T2: L95R/T97I cyno PVRIG ECD with C-terminal 6xHis tag (cynomolgus monkey)
T2 chain: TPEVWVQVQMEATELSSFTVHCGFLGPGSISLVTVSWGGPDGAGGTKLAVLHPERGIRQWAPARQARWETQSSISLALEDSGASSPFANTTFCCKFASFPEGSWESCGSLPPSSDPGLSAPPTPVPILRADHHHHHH

T3: human PVRL2-His (Catalog #2229-N2-050/CF, R&D Systems) (human, UniProt Q92692 32-360)
T3 construct: Bought (R&D Systems); also called His-tagged PVRL2 recombinant protein; PVRL2 (CD112)
T3 sequence (looked up): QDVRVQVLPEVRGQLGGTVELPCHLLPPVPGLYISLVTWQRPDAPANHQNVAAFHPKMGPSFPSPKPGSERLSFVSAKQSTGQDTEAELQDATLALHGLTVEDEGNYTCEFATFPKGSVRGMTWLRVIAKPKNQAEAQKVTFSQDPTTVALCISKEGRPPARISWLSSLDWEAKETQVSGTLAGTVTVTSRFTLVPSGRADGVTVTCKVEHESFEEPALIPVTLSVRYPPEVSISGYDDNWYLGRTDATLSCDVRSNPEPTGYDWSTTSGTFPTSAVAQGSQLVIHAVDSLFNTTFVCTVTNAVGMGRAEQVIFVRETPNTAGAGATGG

B1: CPA.7.050 human IgG1 (antibody, V domains shown)
VH: EVQLVQSGAEVKKPGSSVKVSCKASGGTFSSYAISWVRQAPGQGLEWMGGIIPIFGTANYAQKFQGRVTITADKSTSTAYMELSSLRSEDTAVYYCARGPWYYDSSGYSSYAYYMDVWGQGTTVTVSS
VL: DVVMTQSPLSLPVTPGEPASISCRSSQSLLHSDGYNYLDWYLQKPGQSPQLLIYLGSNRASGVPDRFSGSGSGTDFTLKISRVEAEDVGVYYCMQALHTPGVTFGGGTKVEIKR
notes: also called CPA.7.50
B2: CPA.7.036 human IgG1 (antibody, V domains shown)
VH: QVQLVQSGAEVKKPGSSVKVSCKASGGTFSSSAISWVRQAPGQGFEWMGGIIPIYGITDYAQKFQGRVTITTDESTSTAYMELSSLTSEDTAVYYCARDDTARRVRGVPYYYYYAMDVWGQGTTVTVSS
VL: DIVMTQTPLSLPVTPGEPASISCRPSQSLLDSDDGNTYLDWYLQKPGQSPQLLIHTLSYRASGVPDRFSGSGSGTDFTLKISRVEAEDVGVYYCMQRLQFPLTFGGGTKVEIKR
notes: also called CPA.7.36
B3: CPA.7.038 human IgG1 (antibody, V domains shown)
VH: B2 VH
VL: DIQMTQSPSSLSASVGDRVTITCQASRDISDSLSWYQQKPGKAPKLLIFDASNLKTGVSSRFSGSGSGTDFTFTISSLQPEDIATYYCHQYDNLPLTFGGGTKVEIKR
B4: CPA.7.049 human IgG1 (antibody, V domains shown)
VH: B2 VH with V2M
VL: B2 VL with I21M, P25S, Q27R, Y38H, H55Q, T56S, K80E, V91I, L98K, Q99E
B5: Anti-human PVRIG - CPA.7.021, Human IgG2, conjugated to AF-647 (antibody, V domains shown)
VH: EVQLVESGGGVVKPGGSLRLSCAASGFTFGTSSMNWVRQAPGKGLEWVAVISFDGTEIHYADSVKGRFTISRDNSKSTVFLQMNSLRPDDTALYYCAKGSGNIYFYSGMDVWGQGTTVTVSS
VL: DIQMTQSPSTLSASVGDRVTITCRAGQSISGWLAWFQQKPGKAPNLLIYETSTLESGVPSRFSGSGSGTEYTLTISSLQPDDFATYYCQQYYSYPLTFGQGTKVEIK
modifications: Alexa Fluor 647 dye conjugated to the antibody (site not stated).
notes: also called Anti PVRIG-CPA.7.021 ab; CPA.7.021 IgG2 A647
B6: CPA.7.021 IgG conjugated with Alexa 647 (antibody, V domains shown)
VH: B5 VH
VL: B5 VL
modifications: Alexa Fluor 647 dye conjugated to the antibody (site not stated).
notes: also called Alexa647 labelled CPA.7.021 IgG; conjugated CPA.7.021
B7: CPA.7.021 human IgG1 (antibody, V domains shown)
VH: B5 VH
VL: DIQMTQSPSTLSASVGDRVTITCRAGQSISGWLAWFQQKPGKAPNLLIYETSTLESGVPSRFSGSGSGTEYTLTISSLQPDDFATYYCQQYYSYPLTFGQGTKVEIKR
B8: human DNAM-1 fusion protein (human fc, R&D Systems) (Fc fusion, UniProt Q15762 19-247, looked up, not shown: a dimerising Fc or GST)
chain: EEVLWHTSVPFAENMSLECVYPSMGILTQVEWFKIGTQQDSIAIFSPTHGMVIRKPYAERVYFLNSTMASNNMTLFFRNASEDDVGYYSCSLYTYPQGTWQKVIQVVQSDSFEAAVPSNSHIVSEPGKNVTLTCQPQMTWPVQAVRWEKIQPRQIDLLTYCNLVHGRNFTSKFPRQIVSNCSHGRWSVIVIPDVTVSDSGLYRCYLQASAGENETFVMRLTVAEGKTDN
notes: Bought

Experiments:
[1] = target: T1, human PVRIG (Poliovirus Receptor …); assay: FACS dose titration on PVRIG over-expressing HEK293 cells
Experimental: FACS screening of the reformatted antibodies was done similarly to the PPE based screen described herein, except that a dose-dependent titration of the purified antibodies was performed. The human PVRIG over-expressing HEK293 cells, or the un-transfected HEK293 cells, were incubated with varying concentrations (0-10 μg/ml) of the anti PVRIG antibodies or isotype controls in FACS buffer at 4° C. for 60 mins. […] Cells were washed twice and re-suspended in a final volume of 80 μl of FACS buffer and Propidium Iodide (Biolegend cat #421301) diluted 1:1000. Samples were analyzed using an Intellicyt HTFC screening system (Intellicyt). Data was analyzed using FlowJo (DeNovo), exported to Excel (Microsoft) and plotted in GraphPad Prism (GraphPad Software, Inc.).
All unique ELISA and FACS binders were reformatted for expression as human IgG1 molecules in Expi293 cells. […] These reformatted antibodies were tested for retained binding to PVRIG over-expressing HEK293 cells alongside an irrelevant human IgG1 isotype control. All antibodies were also tested against un-transfected HEK293 cells.

[2] = target: T1, human PVRIG (Poliovirus Receptor …); assay: FACS on resting human CD4+ T cells
[3] = target: T1, human PVRIG (Poliovirus Receptor …); assay: FACS on CD4+ T cells, days 3-6 of activation
[4] = target: T1, human PVRIG (Poliovirus Receptor …); assay: flow cytometry, Alexa 647 IgG titrated on HEK 293 cells expressing human PVRIG, 1:1 equilibrium fit
[5] = target: T2, L95R/T97I cyno PVRIG ECD with …; assay: ELISA on coated His-tagged PVRIG variant
[6] = target: T3, human PVRL2-His (Catalog …); assay: SPR ProteOn, analyte over Fc-captured ligand; complex kinetics

| Binder | Kd [1] [nM] | other results |
| --- | --- | --- |
| B1 | 68.3 |  |
| B2 | 6 |  |
| B3 | 20.3 |  |
| B4 | 19.9 |  |
| B5 |  | fold staining over isotype control [2]: 3 fold; fold staining over isotype control [3]: 2 to 3 fold |
| B6 |  | Kd [4]: 2.5 nM |
| B7 | 11.2 | binding result [5]: binds |
| B8 |  | binding result [6]: binds |
